Test results: patent US20250163163A1 (Chugai, published 2025)

T1: human IL-31R (IL-31 receptor) expressed on BaF cells (BaF/hIL-31R cells) (human, UniProt Q8NI17 20-732)
T1 sequence (looked up): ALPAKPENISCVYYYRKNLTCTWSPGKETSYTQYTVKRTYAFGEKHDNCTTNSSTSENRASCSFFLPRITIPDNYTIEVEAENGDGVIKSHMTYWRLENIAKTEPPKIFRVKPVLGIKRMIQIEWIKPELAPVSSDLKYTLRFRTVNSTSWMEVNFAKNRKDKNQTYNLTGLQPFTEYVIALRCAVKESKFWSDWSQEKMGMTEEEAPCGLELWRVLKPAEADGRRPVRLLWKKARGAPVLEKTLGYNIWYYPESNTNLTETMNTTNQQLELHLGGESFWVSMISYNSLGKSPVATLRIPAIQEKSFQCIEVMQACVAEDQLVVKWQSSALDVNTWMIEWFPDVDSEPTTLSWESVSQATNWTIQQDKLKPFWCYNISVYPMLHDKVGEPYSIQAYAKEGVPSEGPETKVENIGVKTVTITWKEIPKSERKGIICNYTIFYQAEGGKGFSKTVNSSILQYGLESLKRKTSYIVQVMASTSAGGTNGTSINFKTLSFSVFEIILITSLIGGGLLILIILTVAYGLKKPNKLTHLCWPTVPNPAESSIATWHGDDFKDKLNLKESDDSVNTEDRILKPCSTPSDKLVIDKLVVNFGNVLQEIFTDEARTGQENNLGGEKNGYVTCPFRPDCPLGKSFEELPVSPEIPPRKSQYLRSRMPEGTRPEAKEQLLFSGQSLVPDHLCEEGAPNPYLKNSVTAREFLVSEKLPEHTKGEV

B1: nemolizumab AE-HPLC fraction, peak b8 (Pre-Region 2), predominantly the succinimide form (Asu103 variant) (antibody, V domains shown)
VH: QVQLVQSGAEVKKPGASVKVSCKASGYTFTGYIMNWVRQAPGQGLEWMGLINPYNGGTDYNPQFQDRVTITADKSTSTAYMELSSLRSEDTAVYYCARDGYDDGPYTLETWGQGTLVTVSS
VL: DIQMTQSPSSLSASVGDRVTITCQASEDIYSFVAWYQQKPGKAPKLLIYNAQTEAQGVPSRFSGSGSGTDFTLTISSLQPEDFATYYCQHHYDSPLTFGGGTKVEIKR
modifications: Asp103 (Kabat numbering position 99) altered to a succinimide residue (Asu103) at a ratio of 54.0% on peptide basis; Asp99 (Kabat 95) to succinimide 2.7%
B2: nemolizumab AE-HPLC fraction, peak a4 (Post-Region) (antibody, V domains shown)
VH: B1 VH
VL: B1 VL
B3: nemolizumab AE-HPLC fraction, peaks a2 + a3 (Post-Region) (antibody, V domains shown)
VH: B1 VH
VL: B1 VL
B4: nemolizumab AE-HPLC fraction, peaks b2 + b3 (Pre-Region 1) (antibody, V domains shown)
VH: B1 VH
VL: B1 VL
modifications: Asu103 in HC; ratio not given
B5: nemolizumab AE-HPLC fraction, peak a6 (Post-Region) (antibody, V domains shown)
VH: B1 VH
VL: B1 VL
modifications: Deamidation at Asn55 in the CDRs of the heavy chain, 14.9%
B6: nemolizumab AE-HPLC fraction, peaks b4 + b5 + b6 + b7 (Pre-Region 2) (antibody, V domains shown)
VH: B1 VH
VL: B1 VL
modifications: Asu103 in HC (succinimide at Asp103); ratio not given
B7: nemolizumab AE-HPLC fraction, peak a1 (Post-Region) (antibody, V domains shown)
VH: B1 VH
VL: B1 VL
modifications: Deamidation at Asn384 in HC; ratio not given
B8: nemolizumab AE-HPLC fraction, peak a5 (Post-Region) (antibody, V domains shown)
VH: B1 VH
VL: B1 VL
modifications: Deamidation at Asn55 in HC; ratio not given
B9: nemolizumab AE-HPLC fraction, peak b1 (Pre-Region 1), isoAsp form (antibody, V domains shown)
VH: B1 VH
VL: B1 VL
modifications: IsoAsp in CDR (Asp99/102/103) in HC, site not identified: two isoAsp residue-containing peptides at 11.6% and 2.7%; Asu99 1.1%, Asu102 0.2%, Asu103 4.7%

Target: T1, human IL-31R (IL-31 receptor) expressed …
Test: cell-based or functional assay

| Relative biological activity compared to CIM331 reference material (%); inhibition of IL-31-dependent proliferation of BaF/hIL-31R cells [%] | Relative biological activity compared to main peak (%); inhibition of IL-31-dependent proliferation of BaF/hIL-31R cells [%] | Binder |
| --- | --- | --- |
| 23 | 21 | B1 |
| 90 | 82 | B2 |
| 110 | 100 | B3 |
| 73 | 66 | B4 |
| 94 | 85 | B5 |
| 89 | 80 | B6 |
| 110 | 100 | B7 |
| 88 | 79 | B8 |
| 45 | 41 | B9 |
